Changes are numbered by the printed parent chain. Names may count otherwise. “Also recorded” adds a separate entry of the source.
Assays:
[1] = system: CsgB; experiment: Pulldown assay of CsgB by CsgF domains; type: binding, E. coli; conditions: CsgB C-terminal MBP tag, CsgF parts N-terminal MBP tag; western blot
[2] = system: CsgG; experiment: Pulldown assay of CsgF variants/domains with CsgG as bait; type: binding, E. coli K12; conditions: CsgF variants with C-terminal MBP tag
Experimental: The procedure of CsgG purification was similar to that of the CsgFG complex. […] After incubation for 30 min, the mixture was loaded into a Strep-Tactin column (IBA). […] Individual CsgG and CsgF variants were purified as input by Strep-Tactin and Ni-NTA, respectively. The samples were analyzed by 15% SDS–PAGE and stained with Coomassie blue.
CsgFGBD-MBP mutant variants were purified as soluble protein by Ni-NTA. CsgG were purified as membrane protein by Strep-Tactin and substituted by amphipole A8-35. CsgFGBD-MBP mutant variants (36 μM) and CsgG nonamer (2 μM) were mixed together at 4 °C for 2 h and then incubated with equal volume of Strep-Tactin beads at 4 °C for 1 h.
Supplementary Figure 5. Interaction mode between CsgFN and CsgG. a, Interaction of CsgFN and CsgG. […] Two adjacent subunits of CsgG are shown in magenta and cyan, respectively. b, Hydrogen bonds and electrostatic interaction between CsgFN and CsgG. Hydrogen bonds are shown as red […]
aromatic residues in CsgG. d, The hydrophobic interaction between CsgFN and CsgG. e, Pulldown assay between the CsgF(C-terminal MBP tag) mutant variants and CsgG. […] Source data are provided as a Source Data file.
(1 picture or pasted object on this page, not shown here)

[3] = system: PapD2 and CpxP passage through CsgG; conditions: cited from earlier work
From the text: Tyr51, Asn55, and Phe56 residues of CsgG were reported to constitute three stacked concentric rings to form a pore structure in the nonameric channel, which was essential to limit the passage of the folded proteins[22] (Fig. 2a).

[4] = system: CsgA; conditions: CsgF and CsgB as baits (N-terminal MBP tag), CsgA C-terminal MBP tag
Experimental: The cells were induced with 0.5 mM IPTG for 4 h at 37 °C. […] After incubation for 20 min, the mixture was loaded to a Strep-Tactin column (IBA). The beads were washed four times with a buffer having 25 mM Tris-HCl at pH 8.0, 150 mM NaCl, and eluted in a buffer having 25 mM Tris-HCl at pH 8.0, 150 mM NaCl, and 2.5 mM desthiobiotin. […] The samples were analyzed by 15% SDS–PAGE and detected by western blotting.

[5] = system: CsgB; conditions: cited from earlier work
From the text: CsgFC was flexible, and was observed as fuzzy densities on the extracellular side of the CsgFG channel (Fig. 1c and Supplementary Fig. 1d), which should be responsible for interacting with CsgB. To further clarify CsgF function, we first performed a pulldown assay using CsgG as a bait. […] Therefore, CsgF ...

[6] = target: T1, Wild-type CsgG (expressed alone) (E. coli K12, UniProt P0AEA2 16-277); experiment: ITC
T1 chain: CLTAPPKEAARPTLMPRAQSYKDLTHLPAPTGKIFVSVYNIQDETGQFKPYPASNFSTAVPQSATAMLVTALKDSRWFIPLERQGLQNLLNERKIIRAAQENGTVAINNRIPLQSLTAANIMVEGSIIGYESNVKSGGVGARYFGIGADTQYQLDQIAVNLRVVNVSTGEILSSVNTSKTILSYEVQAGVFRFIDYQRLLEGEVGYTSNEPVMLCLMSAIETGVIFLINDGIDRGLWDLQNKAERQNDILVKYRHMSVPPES

[7] = target: T2, Wild-type CsgG (expressed alone) (E. coli K12, UniProt P0AEA2 16-277); experiment: ITC; MicroCal ITC200, 25 °C; nonameric CsgG in amphipole A8-35 in the cell (2 or 10 μM), CsgFN-MBP (200 μM), CsgAN6 peptide (1 mM) or PeptideN (60 µM) in the syringe; 10 mM HEPES pH 7.5, 50 mM NaCl; conditions: both partners purified
T2 construct: also called CsgG nonamer; nonameric CsgG
T2 sequence (looked up): T1 chain

[8] = target: the molecule itself; experiment: cryo-EM structure; CsgFG complex co-expressed from the CsgEFG operon, purified in LDAO; single-particle cryo-EM, 3.8 Å without symmetry, 3.38 Å with C9 symmetry
[9] = system: curli cell association in E. coli K-12 strain BW25113; experiment: Congo red cell-association assay; type: cell-based, E. coli K-12 BW25113; conditions: CsgF variants, scraped YESCA plates after 48 h
Experimental: (§1) The E. coli K-12 strain BW25113 wild type (WT) and mutants were cultured overnight in LB at 37 °C. To induce curli production, 5 μl sample was spotted on YESCA plates (10 g/L casamino acids, 1 g/L yeast extract, and 20 g/L Bacto agar) supplemented with 100 μg/ml ampicillin and 90 μg/ml Congo red. The plates were incubated at 26 °C for 48 h. […] For overexpression assay in the ΔCsgE mutant strain, 3 μM IPTG was also supplemented in the YESCA plates.
For the Congo red cell-association assay, after growing in YESCA plates for 48 h, the cells were scraped from the plates and the scraped plates were observed. The remaining plates with curli cell association appeared white, while the remaining plates without curli cell association appeared red.

[10] = system: curli production in E. coli K-12 strain BW25113; experiment: Congo red secretion assay of CsgF, CsgA or CsgG variants; type: cell-based, E. coli K-12 BW25113
Experimental: as §1

## CsgFN: N-terminal domain of CsgF (CsgFN, residues 1–36)
[1]
  pulldown of CsgB: could not pulldown CsgB
[2]
  CsgF-CsgG interaction in pulldown: CsgG can pulldown both the full-length CsgF and CsgFN

## CsgF: soluble accessory factor of the curli secretion system
[3]
  leakage of PapD2 and CpxP in the presence of CsgF: considerably reduced leakage
[1]
  pulldown of CsgB: full-length CsgF and CsgFC could
[4]
  interaction with CsgA in pulldown: did not directly interact with CsgA
[5]
  binding to CsgB: can also bind to CsgB
[2]
  CsgF-CsgG interaction in pulldown: CsgG can pulldown both the full-length CsgF and CsgFN

## GTMTFQFRNPNFGGNPR (source: synthetic peptide) [PeptideN_(N17R)]
[6]
  Kd: 0.0141 µM
[7]
  binding result: binds

## GVVPQY [CsgAN6 peptide]
[7]
  Kd: 23.8 µM

B1: CsgG (from the CsgEFG operon construct with C-terminal strep-tag II) (natural protein, E. coli K12, UniProt P0AEA2 16-277, looked up)
chain: T1 chain
notes: also called CsgG channel; CsgG subcomplex; source: E. coli BL21 (DE3), co-expressed from the CsgEFG operon; membrane fraction solubilised in DDM/LDAO, purified (Strep-Tactin, SEC); not shown: strep-tag II, C-terminal, kept
[8]
  stoichiometry N: 9 subunits

B2: CsgF (from the CsgEFG operon) (natural protein, E. coli K12, UniProt P0AE98 20-138, looked up)
chain: GTMTFQFRNPNFGGNPNNGAFLLNSAQAQNSYKDPSYNDDFGIETPSALDNFTQAIQSQILGGLLSNINTGKPGRMVTNDYIVDIANRDGQLQLNVTDRKTGQTSTIQVSGLQNNSTDF
notes: also called CsgFN (residues 1-36) and CsgFC (residues 37-119) are its domains; source: E. coli BL21 (DE3), co-expressed from the CsgEFG operon, co-purified with CsgG (Strep-Tactin, SEC)
[8]
  stoichiometry N: 9 subunits

B3: N11A (protein)
chain: B2 chain with N11A
modifications: left off: MBP, end not stated, kept | His tag (from the Ni-NTA purification), end not stated, state not stated
[2]
  CsgF-CsgG interaction in pulldown: did not show any detectable influence on CsgF-CsgG interaction

B4: F21D (protein)
chain: B2 chain with F21D
modifications: left off: MBP, end not stated, kept | His tag (from the Ni-NTA purification), end not stated, state not stated
[2]
  CsgF-CsgG interaction in pulldown: did not show any detectable influence on CsgF-CsgG interaction

B5: R8A (protein)
chain: B2 chain with R8A
modifications: left off: MBP, end not stated, kept | His tag (from the Ni-NTA purification), end not stated, state not stated
[2]
  CsgF-CsgG interaction in pulldown: showed reduced interaction between CsgF and CsgG

B6: N9A (protein)
chain: B2 chain with N9A
modifications: left off: MBP, end not stated, kept | His tag (from the Ni-NTA purification), end not stated, state not stated
[2]
  CsgF-CsgG interaction in pulldown: showed reduced interaction between CsgF and CsgG

B7: L22D (protein)
chain: B2 chain with L22D
modifications: left off: MBP, end not stated, kept | His tag (from the Ni-NTA purification), end not stated, state not stated
[2]
  CsgF-CsgG interaction in pulldown: showed reduced interaction between CsgF and CsgG

B8: L23D (protein)
chain: B2 chain with L23D
modifications: left off: MBP, end not stated, kept | His tag (from the Ni-NTA purification), end not stated, state not stated
[2]
  CsgF-CsgG interaction in pulldown: showed reduced interaction between CsgF and CsgG

B9: F5D (protein)
chain: B2 chain with F5D
modifications: left off: MBP, end not stated, kept | His tag (from the Ni-NTA purification), end not stated, state not stated
[9]
  Congo red cell-association phenotype: nearly eliminated
[2]
  CsgF-CsgG interaction in pulldown: abolished the interaction between CsgF and CsgG

B10: F7D (protein)
chain: B2 chain with F7D
modifications: left off: MBP, end not stated, kept | His tag (from the Ni-NTA purification), end not stated, state not stated
[9]
  Congo red cell-association phenotype: nearly eliminated
[2]
  CsgF-CsgG interaction in pulldown: abolished the interaction between CsgF and CsgG; also recorded: didn’t see binding

B11: F12D (protein)
chain: B2 chain with F12D
modifications: left off: MBP, end not stated, kept | His tag (from the Ni-NTA purification), end not stated, state not stated
[9]
  Congo red cell-association phenotype: nearly eliminated
[2]
  CsgF-CsgG interaction in pulldown: abolished the interaction between CsgF and CsgG

B12: CsgFN17R: N17R-mutated CsgF (protein, UniProt P0AE98 20-138, looked up, variant N17R)
Curli production …: B2 chain with N17R
[10]; CsgF variants in ∆CsgF strain, YESCA/Congo red plates, 26 °C, 48 h
  Congo red secretion phenotype (curli formation): loss of the Congo red phenotype
[10]; N17R-mutated CsgF expressed in wild type (WT) strain
  Congo red secretion phenotype: largely reduced Congo red phenotype

B13: CsgFC: CsgF C-terminal domain (residues 37–119) (protein)
chain: YNDDFGIETPSALDNFTQAIQSQILGGLLSNINTGKPGRMVTNDYIVDIANRDGQLQLNVTDRKTGQTSTIQVSGLQNNSTDF
modifications: left off: MBP, C-terminal, kept | His tag (from the Ni-NTA purification of the input), end not stated, state not stated
[1]
  pulldown of CsgB: full-length CsgF and CsgFC could
[2]
  CsgF-CsgG interaction in pulldown: unlikely to interact with CsgG

Reference: paper PMC6957492, “Assembly and substrate recognition of curli biogenesis system” (Nature Communications, 2020)
